# Molecular target: CD40L (human) (UniProt P29965)
# Assay: cell-based or functional assay
# UniProt P29965, sequence (P29965 whole entry): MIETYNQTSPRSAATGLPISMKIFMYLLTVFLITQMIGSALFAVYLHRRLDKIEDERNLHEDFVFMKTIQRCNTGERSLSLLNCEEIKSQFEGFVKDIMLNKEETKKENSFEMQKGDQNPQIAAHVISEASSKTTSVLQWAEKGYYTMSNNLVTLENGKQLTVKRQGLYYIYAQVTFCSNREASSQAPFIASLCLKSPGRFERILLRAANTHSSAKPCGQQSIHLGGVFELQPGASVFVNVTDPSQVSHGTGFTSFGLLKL
substance,measurement,value
CD40L blocking antibody (clone MK13A4; Enzo Life Sciences Cat #ALX-805-037-C100),abrogation of intracellular p24 expression,90.8%
same,inhibition of CD4 downregulation (flow cytometry of MDC1/SEB-activated CD4+ T cells),87.7%
same,reduction in HIV-1 RNA content in the day 7 co-culture supernatants measured by qRT-PCR,94.1%

# — patent US20220249653A1
